{"source": "paper PMC12502762", "binders": {"B1": {"name": "antibody 8A7 (antibody, V domains shown)", "VH": "EVQLLESGGGLVQPGGSLRLSCAASGFSFSSYAMSWVRQAPGTGLEWVSGISGSGDNIYYADSVKGRFTISRDNSKNTVYMQMNSLRAEDTALYYCAKFSGHYGSGSFHLPEYFQHWGQGTLVTVSS", "VL": "DIQMTQSPATLSASIGDRVTITCRASQSISSWLAWYQQKPGKAPKVLIYKASRLESGVPSRFSGSGSGTEFTLTISSLQPDDFATYYCQQYNTYWTFGQGTKVEIIR"}}, "biological_target": "PA domain 3 (Bacillus anthracis)", "sequence (P13423 517-624 limits assumed)": "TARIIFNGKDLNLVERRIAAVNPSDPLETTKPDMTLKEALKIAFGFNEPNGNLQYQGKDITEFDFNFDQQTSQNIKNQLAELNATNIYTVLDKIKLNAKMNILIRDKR", "assay": "ELISA", "data": [{"binder": "B1", "values": [{"measurement": "EC50", "value": 0.06, "unit": "nM"}]}]}
